Laboratory results taken from US20230331781A1, “PAR4 DERIVED PEPTIDES, ANALOGS AND USES THEREOF” (Yissum Research Development Company of the Hebrew …, priority 2019, published 2023).
Numbered stars: 1 amine (or outer) side, 2 acyl side, 3 side chain; on linkers, the order of the positions; unused ones are H or OH. Bridge positions count the residues as written; N and C are the ends. Square brackets hold non-standard residues; d marks the D form. Ends that are not written are not given here. GlyBU(C4) = Gly building unit (N-alpha-functionalized Gly) carrying a C4 alkyl chain (n = m = 4), bridged through a urea group; CO = O=C([*:1])[*:2]

Target: T1, PAR4-Akt association (Homo sapiens, UniProt P31749)
T1 construct: FLAG; expressed in transfected cells
T1 sequence (P31749 whole entry): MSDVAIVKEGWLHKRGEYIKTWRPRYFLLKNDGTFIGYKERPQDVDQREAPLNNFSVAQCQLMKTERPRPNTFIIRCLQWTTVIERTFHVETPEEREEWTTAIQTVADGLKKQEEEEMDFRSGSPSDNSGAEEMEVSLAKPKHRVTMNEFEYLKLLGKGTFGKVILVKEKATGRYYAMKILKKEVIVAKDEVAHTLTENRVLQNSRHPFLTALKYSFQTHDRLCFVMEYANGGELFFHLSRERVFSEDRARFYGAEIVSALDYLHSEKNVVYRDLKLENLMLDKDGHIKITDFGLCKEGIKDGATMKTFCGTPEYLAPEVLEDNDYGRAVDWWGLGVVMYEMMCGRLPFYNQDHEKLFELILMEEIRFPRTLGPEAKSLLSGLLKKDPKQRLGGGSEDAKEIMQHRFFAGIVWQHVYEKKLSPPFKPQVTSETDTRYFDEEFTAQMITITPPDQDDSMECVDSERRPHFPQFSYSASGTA
Assay: PAR4-Akt association, immunoprecipitation in HEK293 cells transfected with flg-Par4 and AYPGKF activated
Assay type: cell-based
Conditions: HEK293 cells, 50 nM-150 μM, FIG. 8A
Procedure: Experiments shown in FIG. 3A-3C were carried out in MDA-MB-231 cells. […] Unpaired Student's t test was used. This experiment is a representative of three independent experiments performed in triplicates. […] HEK 293T cells were transfected with wt flg-Par4 followed by AYPGKF activation of PAR4. IP was performed using anti fig abs of cells treated or not with CTP4-A peptide and immunoblotting with anti-Akt abs.
FIG. 4A—PH-Akt module alone binds PAR4-C-tail but not mutant R25C. HEK 293 cells were transiently transfected with flg-Par4 construct and either with GFP-PH-Akt domain alone or GFP-R25C. IP of cell lysates following PAR4 AYPGKF activation was carried out using anti-flg abs. Detection of either Akt-PH domain alone associated with PAR4 was performed with anti-GFP. […] FIG. 4C—The PI3K inhibitor […] inhibits the binding of Akt to PAR4. Treatment of HEK 293 cells with LY294002 for various time points or not, following transient transfection with flg-Par4 and AYPGKF activation was performed. Cell lysates were immunoprecipitated with anti-flg antibodies, and anti-Akt was used to assess the association of Akt with the PAR4 C-tail. […] Amino acid residues of PAR4- and PAR2-PH binding motifs. FIG. 4E—mutations inserted into flg-Par4 generated flg-Par4MutE346A. HEK293 cells were transiently transfected with either wt flg-Par4 or flg-Par4MutE346A. IP of cell lysates following PAR4 activation was carried out using anti-flg abs. Detection of PAR4-Akt association was performed by anti Akt Abs. While association with wt Par4 is seen after 5 and 10 min AYPGKF PAR4 activation, when using flg-Par4 E346A no inhibition is seen and effective association with Akt is seen at 30 min activation. FIG. 4F—utations inserted into flg-Par4 generated flg-Par4Mut F347A and flg-Par4Mut D349A. HEK293 cells were transiently transfected with either wt flg-Par4 or flg-Par4Mut F347A or flg-Par4Mut D349A. IP of cell lysates following PAR4 activation was carried out using anti-f/g abs. Detection of PAR4-Akt association was performed by anti Akt Abs. While association with wt Par4 is seen after 5 min AYPGKF PAR4 activation, no such binding is obtained when using either flg-Par4 F347A or flg-Par4D349A.
HEK293 cells were transiently transfected with flg-Par4 followed by AYPGKF PAR4 activation in the presence and absence of PAR4c (4-4) within the range of 50 nM-150 μM. IP of cell lysates following different periods of activation was carried out using anti flg abs. Detection of Akt was performed by anti Akt abs. β-actin serves as a control gene for loading. […] Matrigel invasion before and after AYPGKF PAR4 activation and in the presence and absence of PAR4 c(4-4) inhibitor in the activated PAR4 cells. […] FIG. 8C—Histograms represent quantification of the cells/HPF invaded the Matrigel layer. […]

inhibition of Akt/PKB-PAR4 association (IP): strong inhibition
inhibition of Akt/PKB-PAR4 association (IP) (listed as PAR4 c(4-4)): inhibits
Substance: Pc(4-4): backbone cyclic analog of Formula I, m=n=4, ring size 30 atoms (S[GlyBU(C4)]EFRDK[GlyBU(C4)]; bridge 2-8 via CO; not fully specified; printed as SZ1EFRDKX3)
